In patent publication US20080318845A1 one finds EC50, cAMP generation (DiscoveRx) data, which are given here for 2 substances.

The test addresses rat VPAC1 receptor (rat) (UniProt P30083). Nature of the test: cell-based or functional assay.

rat VPAC1 receptor (rat), sequence (P30083 31-459): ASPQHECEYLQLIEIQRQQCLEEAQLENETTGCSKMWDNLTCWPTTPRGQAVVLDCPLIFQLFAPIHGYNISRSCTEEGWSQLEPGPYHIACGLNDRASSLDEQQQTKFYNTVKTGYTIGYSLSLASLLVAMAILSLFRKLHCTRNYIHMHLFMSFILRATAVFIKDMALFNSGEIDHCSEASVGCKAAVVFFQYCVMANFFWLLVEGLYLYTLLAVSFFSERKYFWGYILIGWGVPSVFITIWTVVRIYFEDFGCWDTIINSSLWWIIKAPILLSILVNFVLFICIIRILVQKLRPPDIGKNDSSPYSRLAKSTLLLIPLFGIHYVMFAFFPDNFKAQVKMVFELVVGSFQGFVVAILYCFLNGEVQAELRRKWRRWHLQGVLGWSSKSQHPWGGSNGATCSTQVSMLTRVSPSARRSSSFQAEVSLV

With “pituitary adenylate cyclase-activating polypeptide PACAP-27”, the EC50, cAMP generation (DiscoveRx) worked out at 70 pM.

In turn, vasoactive intestinal peptide (VIP) registered an EC50, cAMP generation (DiscoveRx) of 20 pM.
